Experimental data taken from the Immune Epitope Database (IEDB).

Legend:
[1] = target: HLA-A*11:01; assay: IEDB peptide-MHC binding, purified MHC/direct/fluorescence; filed as Kd, often an IC50 or EC50 that approximates it; ≥ and ≤ were set here for values at or beyond the usual limits of such assays; settings: source organism: Mycobacterium tuberculosis C
[2] = target: HLA-A*01:01; assay: as above; settings: source organism: Mycobacterium tuberculosis C
[3] = target: HLA-B*46:01; assay: as above; settings: source organism: Mycobacterium tuberculosis C
[4] = target: HLA-B*15:01; assay: as above; settings: source organism: Mycobacterium tuberculosis C
[5] = target: HLA-B*57:01; assay: as above; settings: source organism: Mycobacterium tuberculosis C
[6] = target: HLA-A*03:01; assay: as above; settings: source organism: Mycobacterium tuberculosis C
[7] = target: HLA-B*44:02; assay: as above; settings: source organism: Mycobacterium tuberculosis C
[8] = target: HLA-B*40:01; assay: as above; settings: source organism: Mycobacterium tuberculosis C
[9] = target: HLA-B*07:02; assay: as above; settings: source organism: Mycobacterium tuberculosis C
[10] = target: HLA-B*48:01; assay: as above
[11] = target: HLA-B*18:01; assay: as above; settings: source organism: Mycobacterium tuberculosis C
[12] = target: HLA-A*31:01; assay: as above; settings: source organism: Mycobacterium tuberculosis C
[13] = target: HLA-B*58:01; assay: as above; settings: source organism: Mycobacterium tuberculosis C
[14] = target: HLA-B*08:01; assay: as above; settings: source organism: Mycobacterium tuberculosis C
[15] = target: HLA-B*51:01; assay: IEDB peptide-MHC binding, purified MHC/competitive/fluorescence; filed as Kd, often an IC50 or EC50 that approximates it; ≥ and ≤ were set here for values at or beyond the usual limits of such assays; settings: source organism: Mycobacterium tuberculosis C
[16] = target: HLA-A*02:01; assay: IEDB peptide-MHC binding, purified MHC/competitive/fluorescence; ≥ and ≤ were set here for values at or beyond the usual limits of such assays
[17] = target: HLA-A*11:01; assay: as above
[18] = target: HLA-A*03:01; assay: as above
[19] = target: HLA-A*02:01; assay: IEDB peptide-MHC binding, purified MHC/competitive/fluorescence; filed as Kd, often an IC50 or EC50 that approximates it; ≥ and ≤ were set here for values at or beyond the usual limits of such assays; settings: source organism: Bacillus anthracis str. A0488
[20] = target: HLA-A*02:19; assay: as above; settings: source organism: Bacillus anthracis str. A0488
[21] = target: HLA-A*02:01; assay: IEDB peptide-MHC binding, purified MHC/competitive/radioactivity; filed as Kd, often an IC50 or EC50 that approximates it; ≥ and ≤ were set here for values at or beyond the usual limits of such assays
[22] = target: HLA-A*02:06; assay: as above
[23] = target: HLA-A*02:02; assay: as above
[24] = target: HLA-A*02:03; assay: as above
[25] = target: HLA-A*68:02; assay: as above
[26] = target: HLA-A*24:02; assay: IEDB peptide-MHC binding, purified MHC/competitive/fluorescence; ≥ and ≤ were set here for values at or beyond the usual limits of such assays; settings: source organism: Zaire ebolavirus
[27] = target: HLA-A*01:01; assay: IEDB peptide-MHC binding, purified MHC/competitive/fluorescence; filed as Kd, often an IC50 or EC50 that approximates it; ≥ and ≤ were set here for values at or beyond the usual limits of such assays; settings: source organism: Influenza A virus (A/equine/California/8560/2002(H3N8))
[28] = target: HLA-A*11:01; assay: IEDB peptide-MHC binding, purified MHC/competitive/radioactivity; filed as Kd, often an IC50 or EC50 that approximates it; ≥ and ≤ were set here for values at or beyond the usual limits of such assays
[29] = target: HLA-B*53:01; assay: as above
[30] = target: HLA-B*35:01; assay: as above; settings: source organism: Vaccinia virus WR
[31] = target: HLA-A*68:01; assay: as above
[32] = target: HLA-A*30:01; assay: as above; settings: source organism: Vaccinia virus WR
[33] = target: HLA-B*54:01; assay: as above
[34] = target: HLA-B*51:01; assay: as above; settings: source organism: Vaccinia virus WR
[35] = target: HLA-A*03:01; assay: as above
[36] = target: HLA-B*07:02; assay: as above; settings: source organism: Vaccinia virus WR
[37] = target: HLA-A*31:01; assay: as above
[38] = target: HLA-A*33:01; assay: as above
[39] = target: HLA-A*01:01; assay: as above; settings: source organism: Hepatitis C virus (isolate 1)
[40] = target: HLA-B*40:02; assay: as above; settings: source organism: Hepatitis C virus (isolate 1)
[41] = target: HLA-B*44:02; assay: as above; settings: source organism: Hepatitis C virus (isolate 1)
[42] = target: HLA-B*40:01; assay: as above; settings: source organism: Hepatitis C virus (isolate 1)
[43] = target: HLA-B*44:03; assay: as above; settings: source organism: Hepatitis C virus (isolate 1)
[44] = target: HLA-B*08:01; assay: as above; settings: source organism: Hepatitis C virus (isolate 1)
[45] = source organism: Zaire ebolavirus
[46] = source organism: HIV-1 M:B_ARV2/SF2
[47] = source organism: Sudan ebolavirus
[48] = source organism: Triticum aestivum
[49] = source organism: Vaccinia virus Copenhagen
[50] = source organism: Vaccinia virus WR
[51] = source organism: Vaccinia virus
[52] = source organism: Hepatitis C virus (isolate 1)

In the case of TPKIRFWHV, the Kd [1] is reported as no less than 20 µM, the Kd [2] is reported as no less than 20 µM and the Kd [3] is reported as no less than 20 µM. The Kd [4] was no less than 20 µM, the Kd [5] was no less than 20 µM and the Kd [6] was no less than 20 µM. It also gave a Kd [7] of no less than 20 µM, a Kd [8] of no less than 20 µM and a Kd [9] of no less than 20 µM. It also gave a Kd ([10]; source organism: Mycobacterium tuberculosis C) of no less than 20 µM, a Kd [11] of no less than 20 µM and a Kd [12] of no less than 20 µM. The Kd [13] was no less than 20 µM, the Kd [14] was 0.0915 µM and the Kd [15] was no less than 20 µM.
Work on LRTFSILNR yielded an IC50 [16, 45] of no less than 248 µM, an IC50 [17, 45] of 33.1 µM and an IC50 [18, 45] of no less than 111 µM.
For DMNLEQWSV, the Kd [19] was no less than 20 µM and the Kd [20] was 0.0117 µM.
VIYQYMDDL showed a Kd [21, 46] of 5.84 µM, a Kd [22, 46] of 7.68 µM and a Kd [23, 46] of 0.156 µM. It also gave a Kd [24, 46] of 4.74 µM and a Kd [25, 46] of no less than 56.2 µM.
LGLRKRSRR was tested, and the IC50 [17, 47] was 65.8 µM and the IC50 [18, 47] was 6.72 µM.
With VLYYHMMKD the IC50 [16, 45] was 48.1 µM, the IC50 [17, 45] was 12.6 µM and the IC50 [18, 45] was 26 µM.
Sequence KILMNFHQK has an IC50 [16, 45] of no less than 95.4 µM, an IC50 [17, 45] of 0.441 µM and an IC50 [26] of 50.3 µM. For the same sequence, the IC50 [18, 45] was 3.35 µM.
QIIHDFVDK was tested, and the IC50 [16, 45] was no less than 262 µM, the IC50 [17, 45] was 6.34 µM and the IC50 [18, 45] was no less than 97.5 µM.
EQGKQHAWL showed a Kd ([10]; source organism: Burkholderia mallei ATCC 23344) of no less than 20 µM.
Work on LQQSTYQLV yielded a Kd [21, 48] of 0.0913 µM, a Kd [22, 48] of 0.0275 µM and a Kd [23, 48] of 0.436 µM. It also gave a Kd [24, 48] of 0.0188 µM and a Kd [25, 48] of no less than 56.5 µM.
ANCSSISIK showed an IC50 [17, 49] of 2.78 µM and an IC50 [18, 49] of 42.4 µM.
With MTIASVPTSRY the Kd [27] was 2.04 µM.
MTIREFPRK gave a Kd [21, 50] of no less than 78.1 µM, a Kd [28, 50] of 0.00392 µM and a Kd [29, 50] of no less than 78.2 µM. The Kd [22, 50] was no less than 65.6 µM, the Kd [30] was no less than 77.4 µM and the Kd [31, 50] was 0.00619 µM. It also gave a Kd [32] of 0.00159 µM, a Kd [33, 50] of no less than 78.1 µM and a Kd [34] of no less than 77.5 µM. The Kd [23, 50] was no less than 77.8 µM, the Kd [35, 50] was 0.00627 µM and the Kd [36] was no less than 77.5 µM. The Kd [24, 50] was no less than 78.1 µM, the Kd [25, 50] was 3.32 µM and the Kd [37, 50] was 0.0998 µM. The Kd [38, 50] was 1.38 µM.
NRSTKGGQQ gave an IC50 [17, 45] of no less than 140 µM and an IC50 [18, 45] of no less than 286 µM.
In the case of LSVETITEK, the Kd [31, 50] is reported as 0.261 µM, the Kd [37, 50] is reported as 2.92 µM and the Kd [38, 50] is reported as 1.52 µM. For the same sequence, the IC50 [16, 49] was no less than 134 µM, the IC50 [17, 49] was 6.6 µM and the IC50 [18, 49] was no less than 101 µM.
In the case of LEYKTLCDM, the IC50 [17, 51] is reported as 44.8 µM and the IC50 [18, 51] is reported as no less than 289 µM.
HPNIEEVAL was tested, and the Kd [21, 52] was no less than 70.5 µM, the Kd [28, 52] was no less than 77.9 µM and the Kd [39] was 16 µM. It also gave a Kd [29, 52] of 0.163 µM, a Kd [22, 52] of no less than 67.3 µM and a Kd [31, 52] of no less than 57.9 µM. It also gave a Kd [40] of no less than 77.3 µM, a Kd [33, 52] of 4.57 µM and a Kd [23, 52] of 4 µM. For the same sequence, the Kd [35, 52] was no less than 78 µM, the Kd [41] was no less than 78 µM and the Kd [42] was no less than 76.2 µM. It also gave a Kd [24, 52] of 17.2 µM, a Kd [25, 52] of no less than 69.8 µM and a Kd [37, 52] of no less than 77.9 µM. The Kd [43] was no less than 48.2 µM, the Kd [38, 52] was no less than 77.7 µM and the Kd [44] was no less than 36 µM.
TNAMVTLRK showed an IC50 [16, 45] of no less than 1090 µM, an IC50 [17, 45] of 0.311 µM and an IC50 [26] of no less than 188 µM. The IC50 [18, 45] was 6.42 µM.
With HIPGDTLFK the IC50 ([17]; source organism: Variola virus) was 0.735 µM and the IC50 ([18]; source organism: Variola virus) was 6.64 µM.
